# Laboratory results: patent publication US20240415884A1 (UNIVERSITY OF PITTSBURGH OF THE COMMONWEALTH SYSTEM OF …, published 2024)
# T1: human CD276 polypeptide (antigen of the ELISA of Clones #1-#8) (human, UniProt Q5ZPR3 29-461, limits assumed)
# T1 construct: For panning it was fused at its C-terminus to human IgG1 Fc (CD276-Fc); also called B7-H3
# T1 sequence: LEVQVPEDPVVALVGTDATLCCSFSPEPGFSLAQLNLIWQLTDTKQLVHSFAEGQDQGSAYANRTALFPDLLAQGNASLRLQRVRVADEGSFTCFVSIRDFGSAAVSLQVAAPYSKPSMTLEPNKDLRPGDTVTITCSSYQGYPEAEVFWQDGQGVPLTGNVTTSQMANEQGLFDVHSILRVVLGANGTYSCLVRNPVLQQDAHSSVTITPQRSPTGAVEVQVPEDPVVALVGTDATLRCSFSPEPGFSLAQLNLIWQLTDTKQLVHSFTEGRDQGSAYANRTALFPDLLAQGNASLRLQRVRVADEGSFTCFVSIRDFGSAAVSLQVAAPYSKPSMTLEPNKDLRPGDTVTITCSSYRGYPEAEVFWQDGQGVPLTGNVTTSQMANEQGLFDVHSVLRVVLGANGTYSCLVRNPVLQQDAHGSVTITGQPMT
# T2: 4Ig CD276 polypeptide with his tag (human, UniProt Q5ZPR3 29-466)
# T2 construct: extracellular domain; SPR antigen; also called 4Ig CD276-his; not shown: his tag
# T2 sequence (looked up): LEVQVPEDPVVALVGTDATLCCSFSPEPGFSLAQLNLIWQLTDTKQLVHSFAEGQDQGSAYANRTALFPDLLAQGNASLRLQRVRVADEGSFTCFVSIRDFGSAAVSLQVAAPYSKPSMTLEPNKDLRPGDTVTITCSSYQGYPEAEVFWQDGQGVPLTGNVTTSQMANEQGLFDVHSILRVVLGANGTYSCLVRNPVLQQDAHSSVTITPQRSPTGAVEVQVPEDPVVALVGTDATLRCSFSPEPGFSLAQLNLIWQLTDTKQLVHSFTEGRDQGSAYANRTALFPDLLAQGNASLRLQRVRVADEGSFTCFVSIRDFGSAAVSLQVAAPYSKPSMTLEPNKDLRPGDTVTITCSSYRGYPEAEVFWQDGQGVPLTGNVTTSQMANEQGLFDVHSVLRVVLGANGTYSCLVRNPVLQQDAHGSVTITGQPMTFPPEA
# T3: 4Ig CD276 polypeptide with Fc tag (human, UniProt Q5ZPR3 29-466)
# T3 construct: extracellular domain; SPR antigen; also called 4Ig CD276-Fc; not shown: Fc tag
# T3 sequence (looked up): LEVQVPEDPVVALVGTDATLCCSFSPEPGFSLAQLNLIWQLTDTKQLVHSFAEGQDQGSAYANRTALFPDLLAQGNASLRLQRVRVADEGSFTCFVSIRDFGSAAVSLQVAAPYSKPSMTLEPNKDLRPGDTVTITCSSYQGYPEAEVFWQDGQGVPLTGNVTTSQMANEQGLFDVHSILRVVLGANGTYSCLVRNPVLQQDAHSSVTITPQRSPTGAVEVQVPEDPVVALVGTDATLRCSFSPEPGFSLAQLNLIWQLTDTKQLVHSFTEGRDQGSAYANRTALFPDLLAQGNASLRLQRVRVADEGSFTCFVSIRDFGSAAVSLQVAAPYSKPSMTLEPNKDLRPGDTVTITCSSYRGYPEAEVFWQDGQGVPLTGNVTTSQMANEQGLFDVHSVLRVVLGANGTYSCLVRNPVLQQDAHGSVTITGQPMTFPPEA
# T4: recombinant CD276 polypeptide that included four Ig-like extracellular domains (human, UniProt Q5ZPR3 29-466)
# T4 construct: extracellular domain; also called 4Ig CD276 polypeptide; a CD276 polypeptide
# T4 sequence (looked up): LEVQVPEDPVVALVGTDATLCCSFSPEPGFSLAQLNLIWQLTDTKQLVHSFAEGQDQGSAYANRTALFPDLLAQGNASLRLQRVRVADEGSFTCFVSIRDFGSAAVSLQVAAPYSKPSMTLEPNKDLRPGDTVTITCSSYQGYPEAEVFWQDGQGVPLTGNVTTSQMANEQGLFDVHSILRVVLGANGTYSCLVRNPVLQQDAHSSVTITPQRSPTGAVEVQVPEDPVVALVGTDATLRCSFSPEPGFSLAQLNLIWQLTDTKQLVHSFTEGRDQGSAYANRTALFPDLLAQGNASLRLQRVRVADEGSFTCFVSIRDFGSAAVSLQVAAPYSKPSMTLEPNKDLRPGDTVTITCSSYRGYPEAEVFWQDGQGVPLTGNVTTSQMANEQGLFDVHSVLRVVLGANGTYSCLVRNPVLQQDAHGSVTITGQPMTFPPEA
# Experiments:
# [1] = target: T1, human CD276 polypeptide (antigen of the …); assay: ELISA on a human CD276 polypeptide
# [2] = target: T2, 4Ig CD276 polypeptide with his tag; assay: SPR, panel CD276-His; sensorgrams with fits, response up to about 18 RU; which partner is on the chip is not stated
# [3] = target: T3, 4Ig CD276 polypeptide with Fc tag; assay: SPR, panel CD276-Fc; sensorgrams with fits, response up to about 15 RU; which partner is on the chip is not stated
# [4] = target: T4, recombinant CD276 polypeptide that …; assay: ELISA on recombinant CD276 polypeptide with four Ig-like extracellular domains (FIG. 28)
# Procedure: Clones #9 and #10, two VH binders, bound to a CD276 polypeptide with EC₅₀ values of 8.1 and 1.2 nM, respectively, as tested by ELISA. […] The molecular weight of these two clones were validated by mass spectrum. The binding kinetics of clone #9 and #10 to the 4Ig CD276 polypeptide with both his tag and Fc tag were measured by surface plasmon resonance. […] See, FIGS. 28-32.
# [5] = target: T3, 4Ig CD276 polypeptide with Fc tag; assay: SPR, panel CD276-Fc; sensorgrams with fits, response up to about 11 RU; which partner is on the chip is not stated
# [6] = target: T2, 4Ig CD276 polypeptide with his tag; assay: SPR, panel CD276-His; sensorgrams with fits, response up to about 12 RU; which partner is on the chip is not stated
Binder,EC50 [1] [nM],further results
"Clone #2 (ab2) (Fab, V domains shown, also called #2 (Fab)) VH: QVQLVESGGGLVKPGGSLRLSCAASGFTFSDYYMSWIRQAPGKGLEWVSYISSSGSTIYYADSVKGRFTISRDNAKNSLYLQMNSLRAEDTAVYYCARRGAMGHHDGFDMWGLGTMVTVSS VL: DIQMTQSPSSLSASVGDRVTITCRASQSISSYLNWYQQKPGKAPKLLIYAASSLQSGVPSRFSGSGSGTDFTLTISSLQPEDVAVYYCQQRSNWPLYTFGQGTKLEIKR",46,
"Clone #1 (ab1) (Fab, V domains shown, also called #1 (Fab)) VH: QVQLVESGGGLVKPGGSLRLSCAASGFTFSDYYMSWIRQAPGKGLEWVSYISSSGSTIYYADSVKGRFTISRDNAKNSLYLQMNSLRAEDTAVYYCARGINFGLDIWGQGTTVTVSS VL: DIQMTQSPSSLSASVGDRVTITCRASQSISSYLNWYQQKPGKAPKLLIYAASSLQSGVPSRFSGSGSGTDFTLTISSLQPEDVGVYYCMQALQTLFGQGTKVDIKR",34,
"Clone #8 (ab8) (Fab, V domains shown, also called #8 (Fab)) VH: QVQLVESGGGLVKPGGSLRLSCAASGFTFSDYYMSWIRQAPGKGLEWVSYISSSGSTIYYADSVKGRFTISRDNAKNSLYLQMNSLRAEDTAVYYCARDAPTSGWKWFAPDYWGQGALVTVSS VL: not shown",4,
"Clone #10 (ab10) (VHH, also called C7; #10 (VH domain)) VHH: EVQLVESGGGVVQPGRSLRLSCAASGFTFSSYAMHWVRQAPGKGLEWIGEIYHGGSTDYNPSLKSRVTISRDDSTNTLYLQMNSLRAEDTAVYYCTRGGKRLLSVYGVDVWGQGTMVTVSS",,Kd [2]: 7.83 nM; Kd [3]: 5.2 nM; EC50 [4]: 1.2 nM
"Clone #4 (ab4) (VHH, kind VHH is used for single domain; also called #4 (VH domain)) VHH: EVQLVESGGGLVQPGGSLRLSCAASWFDFQDYDMSWVRQAPGKGLEWIGEINHSGSTNYNPSLKSRVTISRDNSKNTLYLQMNSLRAEDTAVYYCAKIGYWGQGTLVTVSS",0.9,
"Clone #7 (ab7) (VHH, also called #7 (VH domain)) VHH: EVQLVESGGGLVQPGGSLRLSCAASGFTFSSYAMSWVRQAPGQGLEWIGEINHSGSTNYNPSLKSRVTISRDNSKNTLYLQMNSLRAEDTAVYYCVHIDYWGQGTLVAVSS",0.6,
"Clone #3 (ab3) (Fab, V domains shown, also called #3 (Fab)) VH: QVQLVESGGGLVKPGGSLRLSCAASGFTFSDYYMSWIRQAPGKGLEWVSYISSSGSTIYYADSVKGRFTISRDNAKNSLYLQMNSLRAEDTAVYYCARRGGSYYARGAFDIWGQGTMVTVSS VL: DIQMTQSPSSLSASVGDRVTITCRASQSISSYLNWYQQKPGKAPKLLIYAASSLQSGVPSRFSGSGSGTDFTLTISSLQPEDAATYYCQHRSDWPPKFTFGPGTKVDIKR",26,
"Clone #9 (ab9) (VHH, also called A10; #9 (VH domain)) VHH: EVQLVESGGGVVQPGRSLRLSCAASGFTFSSYAMHWVRQAPGQGLEWVSTIGPRGINTHYADSVKGRFTISRDNSKNTLYLQMNSLRAEDTATYYCARDRVGYNSYGMDVWGQGTMVTVSS",,Kd [5]: 5.3 nM; Kd [6]: 6 nM; EC50 [4]: 8.1 nM

# The next lines start with results.
EC50 [1] [nM],Binder,further results
1.2,"Clone #5 (ab5) (VHH, also called #5 (VH domain)) VHH: EVQLVESGGGLVQPGGSLRLSCAASPFPFTIYEMSWVRQASGKALEWIGYINHSGSTNYNPSLKSRVTISRDNSKNTLYLQMNSLRAEDTAMYYCAILAPDYWGQGTLVTVSS",
10,"Clone #6 (ab6) (VHH, also called #6 (VH domain)) VHH: EVQLVESGGGLVQPGGSLRLSCAASGSPFPHYEMSWVRQAPGKGLEWMGWINTNTGKSTYAQGFTGRFTISRDNSKNTLYLQMNSLRAEDTAVYYCARSGYGYYFDYWGQGTLVTVSS",
